Data published in patent US20220289816A1, “IMMUNOTHERAPY WITH B*07 RESTRICTED PEPTIDES AND COMBINATION OF PEPTIDES AGAINST CANCERS AND RELATED METHODS” (Immatics Biotechnologies GmbH, priority 2018, published 2022).

Each substance was assayed against HLA-B*07 (Homo sapiens, UniProt P01889) (assay: MHC binding assay (UV-ligand exchange, ELISA of stabilized MHC complexes)). Conditions: peptide exchange yield on HLA-B*07, UV-ligand exchange.
Excerpt: Candidate peptides for T cell based therapies according to the present invention were further tested for their MHC binding capacity (affinity). The individual peptide-MHC complexes were produced by UV-ligand exchange, where a UV-sensitive peptide is cleaved upon UV-irradiation and exchanged with the peptide of interest as analyzed. Only peptide candidates that can effectively bind and stabilize the peptide-receptive MHC molecules prevent dissociation of the MHC complexes. To determine the yield of the exchange reaction, an ELISA was performed based on the detection of the light chain (β2m) of stabilized MHC complexes. The assay was performed as generally described in Rodenko et al. (Rodenko et al., 2006)
96 well MAXISorp plates (NUNC) were coated over night with 2 ug/ml streptavidin in PBS at room temperature, washed 4× and blocked for 1 h at 37° C. in 2% BSA containing blocking buffer. […] Peptide-MHC monomers of the UV-exchange reaction were diluted 100-fold in blocking buffer. Samples were incubated for 1 h at 37° C., washed four times, incubated with 2 ug/ml HRP conjugated anti-[…] for 1 h at 37° C., washed again and detected with TMB solution that is stopped with […]. Absorption was measured at 450 nm. Candidate peptides that show a high exchange yield (preferably higher than 50%, most preferred higher than 75%) are generally preferred for a generation and production of antibodies or fragments thereof, and/or T cell receptors or fragments thereof, as they show sufficient avidity to the MHC molecules and prevent dissociation of the MHC complexes.

**Q.** Which Peptide exchange does the source give for “476 (EPNPVEEIF; listed as Homo sapiens) [compound 476]” here?
**A.** ++ (>20% = ++)

**Q.** How did the Peptide exchange turn out when “11 (APLPRPGAV; listed as Homo sapiens) [compound 11]” was run?
**A.** ++++ (>75% = ++++)

**Q.** How did the Peptide exchange turn out when “184 (KIIASGNHL; listed as Homo sapiens) [compound 184]” was run?
**A.** ++ (>20% = ++)

**Q.** “252 (QPENSLEGISL; listed as Homo sapiens) [compound 252]” was tested. Which Peptide exchange did it give?
**A.** +++ (>50 = +++)

**Q.** “220 (RPAPGPAPFV; listed as Homo sapiens) [compound 220]” was tested. Which Peptide exchange did it give?
**A.** +++ (>50 = +++)

**Q.** “230 (DVIDDIISL; listed as Homo sapiens) [compound 230]” was tested. Which Peptide exchange did it give?
**A.** ++++ (>75% = ++++)

**Q.** For “295 (HPRWIEPTVM; listed as Homo sapiens) [compound 295]”, which Peptide exchange is on record?
**A.** ++++ (>75% = ++++)

**Q.** Which Peptide exchange does the source give for “193 (LPALKEEAF; listed as Homo sapiens) [compound 193]” here?
**A.** ++++ (>75% = ++++)

**Q.** Which Peptide exchange does the source give for “350 (RPKSTLMNF; listed as Homo sapiens) [compound 350]” here?
**A.** ++++ (>75% = ++++)

**Q.** How did the Peptide exchange turn out when “73 (LPVSSPVTL; listed as Homo sapiens) [compound 73]” was run?
**A.** ++++ (>75% = ++++)

**Q.** For “363 (KPRTPFTTA; listed as Homo sapiens) [compound 363]”, which Peptide exchange is on record?
**A.** ++++ (>75% = ++++)

**Q.** For “251 (MPVDSFNSM; listed as Homo sapiens) [compound 251]”, which Peptide exchange is on record?
**A.** ++++ (>75% = ++++)

**Q.** With “354 (APAKDARASL; listed as Homo sapiens) [compound 354]” as the substance, how does the Peptide exchange read?
**A.** ++++ (>75% = ++++)

**Q.** For “341 (LPRSPPLKVL; listed as Homo sapiens) [compound 341]”, which Peptide exchange is on record?
**A.** ++++ (>75% = ++++)

**Q.** For “44 (SPSQTVQRAV; listed as Homo sapiens) [compound 44]”, which Peptide exchange is on record?
**A.** ++++ (>75% = ++++)

**Q.** With “359 (SPRRLVELAGQSL; listed as Homo sapiens) [compound 359]” as the substance, how does the Peptide exchange read?
**A.** ++++ (>75% = ++++)

**Q.** For “290 (RPTHPLRSF; listed as Homo sapiens) [compound 290]”, which Peptide exchange is on record?
**A.** ++++ (>75% = ++++)

**Q.** Which Peptide exchange does the source give for “7 (RPSQLAPATL; listed as Homo sapiens) [compound 7]” here?
**A.** +++ (>50 = +++)

**Q.** With “377 (SPFSKRIKL; listed as Homo sapiens) [compound 377]” as the substance, how does the Peptide exchange read?
**A.** +++ (>50 = +++)

**Q.** How did the Peptide exchange turn out when “277 (MPPLLIVAF; listed as Homo sapiens) [compound 277]” was run?
**A.** ++ (>20% = ++)

**Q.** With “358 (APSMLRKNQL; listed as Homo sapiens) [compound 358]” as the substance, how does the Peptide exchange read?
**A.** +++ (>50 = +++)

**Q.** Which Peptide exchange does the source give for “322 (RAVPVGSGL; listed as Homo sapiens) [compound 322]” here?
**A.** +++ (>50 = +++)

**Q.** “197 (RPSGTAGAALLA; listed as Homo sapiens) [compound 197]” was tested. Which Peptide exchange did it give?
**A.** ++ (>20% = ++)

**Q.** For “284 (RPSAPRGPP; listed as Homo sapiens) [compound 284]”, which Peptide exchange is on record?
**A.** ++++ (>75% = ++++)

**Q.** Which Peptide exchange does the source give for “79 (GPASDHPSL; listed as Homo sapiens) [compound 79]” here?
**A.** +++ (>50 = +++)

**Q.** How did the Peptide exchange turn out when “232 (TAYPSLRLL; listed as Homo sapiens) [compound 232]” was run?
**A.** +++ (>50 = +++)

**Q.** “8 (MPKTNLSKM; listed as Homo sapiens) [compound 8]” was tested. Which Peptide exchange did it give?
**A.** +++ (>50 = +++)

**Q.** “121 (GPFQRAAL; listed as Homo sapiens) [compound 121]” was tested. Which Peptide exchange did it give?
**A.** +++ (>50 = +++)

**Q.** “356 (RPFLRLPSL; listed as Homo sapiens) [compound 356]” was tested. Which Peptide exchange did it give?
**A.** +++ (>50 = +++)

**Q.** With “278 (LIAARGSLVL; listed as Homo sapiens) [compound 278]” as the substance, how does the Peptide exchange read?
**A.** +++ (>50 = +++)

**Q.** Which Peptide exchange does the source give for “25 (RPQGAVGGL; listed as Homo sapiens) [compound 25]” here?
**A.** +++ (>50 = +++)

**Q.** “274 (KPIRTGISPLAL; listed as Homo sapiens) [compound 274]” was tested. Which Peptide exchange did it give?
**A.** +++ (>50 = +++)

**Q.** “16 (FPAPPAHWF; listed as Homo sapiens) [compound 16]” was tested. Which Peptide exchange did it give?
**A.** ++++ (>75% = ++++)

**Q.** “127 (KSKQVITLL; listed as Homo sapiens) [compound 127]” was tested. Which Peptide exchange did it give?
**A.** + (>10% = +)

**Q.** “221 (LPQRPNARL; listed as Homo sapiens) [compound 221]” was tested. Which Peptide exchange did it give?
**A.** +++ (>50 = +++)

**Q.** For “120 (TVRPKNAAL; listed as Homo sapiens) [compound 120]”, which Peptide exchange is on record?
**A.** +++ (>50 = +++)

**Q.** With “372 (SPSSASLTL; listed as Homo sapiens) [compound 372]” as the substance, how does the Peptide exchange read?
**A.** ++++ (>75% = ++++)

**Q.** For “180 (RLRDYISSL; listed as Homo sapiens) [compound 180]”, which Peptide exchange is on record?
**A.** ++++ (>75% = ++++)

**Q.** With “454 (SPDPAHLESL; listed as Homo sapiens) [compound 454]” as the substance, how does the Peptide exchange read?
**A.** ++++ (>75% = ++++)

**Q.** “459 (SPAPWRPWI; listed as Homo sapiens) [compound 459]” was tested. Which Peptide exchange did it give?
**A.** ++++ (>75% = ++++)

**Q.** For “151 (QPTWNTQTRL; listed as Homo sapiens) [compound 151]”, which Peptide exchange is on record?
**A.** ++++ (>75% = ++++)

**Q.** Which Peptide exchange does the source give for “309 (FAFYGGKSL; listed as Homo sapiens) [compound 309]” here?
**A.** +++ (>50 = +++)

**Q.** With “62 (KPQSTISGL; listed as Homo sapiens) [compound 62]” as the substance, how does the Peptide exchange read?
**A.** +++ (>50 = +++)

**Q.** “265 (FPRKPYEGRV; listed as Homo sapiens) [compound 265]” was tested. Which Peptide exchange did it give?
**A.** +++ (>50 = +++)

**Q.** How did the Peptide exchange turn out when “195 (NPIFGRKEL; listed as Homo sapiens) [compound 195]” was run?
**A.** +++ (>50 = +++)

**Q.** “141 (YGPYGSGSGW; listed as Homo sapiens) [compound 141]” was tested. Which Peptide exchange did it give?
**A.** ++ (>20% = ++)

**Q.** How did the Peptide exchange turn out when “469 (LPLDTRTSI; listed as Homo sapiens) [compound 469]” was run?
**A.** ++++ (>75% = ++++)

**Q.** For “258 (SVIGPNSRL; listed as Homo sapiens) [compound 258]”, which Peptide exchange is on record?
**A.** ++ (>20% = ++)

**Q.** “296 (SPLLMQRTL; listed as Homo sapiens) [compound 296]” was tested. Which Peptide exchange did it give?
**A.** ++++ (>75% = ++++)

**Q.** With “275 (IPAPQGAVL; listed as Homo sapiens) [compound 275]” as the substance, how does the Peptide exchange read?
**A.** +++ (>50 = +++)

**Q.** For “111 (YPLQQTNVY; listed as Homo sapiens) [compound 111]”, which Peptide exchange is on record?
**A.** + (>10% = +)

**Q.** How did the Peptide exchange turn out when “353 (KPRATWTL; listed as Homo sapiens) [compound 353]” was run?
**A.** +++ (>50 = +++)

**Q.** With “486 (TPTRPLPSA; listed as Homo sapiens) [compound 486]” as the substance, how does the Peptide exchange read?
**A.** ++ (>20% = ++)

**Q.** For “229 (FPNAGPRHLL; listed as Homo sapiens) [compound 229]”, which Peptide exchange is on record?
**A.** +++ (>50 = +++)

**Q.** “225 (SPIIHSIL; listed as Homo sapiens) [compound 225]” was tested. Which Peptide exchange did it give?
**A.** +++ (>50 = +++)

**Q.** With “162 (IPIRVDQNGAF; listed as Homo sapiens) [compound 162]” as the substance, how does the Peptide exchange read?
**A.** +++ (>50 = +++)

**Q.** With “464 (VPFVPRTSV; listed as Homo sapiens) [compound 464]” as the substance, how does the Peptide exchange read?
**A.** +++ (>50 = +++)

**Q.** For “287 (SPIPRPLFL; listed as Homo sapiens) [compound 287]”, which Peptide exchange is on record?
**A.** ++++ (>75% = ++++)

**Q.** “276 (RPVWDVRSA; listed as Homo sapiens) [compound 276]” was tested. Which Peptide exchange did it give?
**A.** ++++ (>75% = ++++)
